# Molecular target: T1, biotin-CaM and GST-AKAP79 (1–153) (Homo sapiens, UniProt P0DP23)
# T1 construct: made in house; host or cells: E. coli BL21 (DE3)
# Test: alphascreen disruption of biotin-CaM / GST-AKAP79 (1–153) interaction
# Assay type: binding
# Conditions: 20-mer scanning peptides at 100 nM; biotin-CaM 10 nM; 1 mM CaCl2, 20 mM HEPES pH 7.2; preincubation 1 h 22 °C; mean ± s.e.m., n = 5 (Fig. 2d)
# Procedure: To examine whether this could correspond to the CaM-binding site in AKAP79, we used a complementary method - the amplified luminescent proximity homogenous assay (alpha)-screen technique-to scan the N-terminus of AKAP79 for sequences that could mediate interactions with CaM. […] We screened peptides derived from the N-terminus of AKAP79 for their ability to reduce alphascreen emission. […] The effect of each peptide at 100 nM concentration on CaM–AKAP79 (1–153) interaction is shown in Fig. 2d as log2 emission ratios (with/without peptide).
# To determine whether these basic amino acids contribute to the interaction, we compared how effectively peptides of different lengths could disrupt CaM–AKAP79 interaction.
# In general, assays were performed in 50 μL buffer consisting of 20 mM HEPES pH 7.2, 100 mM NaCl, 0.1% BSA, 1 mM EGTA, 5 mM MgCl2, 1 mM CaCl2. CaCl2 was excluded where appropriate.
# To determine the K Ca for CaM binding to calcineurin and AKAP79, the CaCl2 concentration was varied to produce different free Ca^2+ concentrations on the basis of calculations using maxchelator[43]. After initial incubations, anti-GST acceptor beads (PerkinElmer) were added at 10 ng/μL. […] After 1 h further incubation with vigorous shaking in a thermomixer (1200 r.p.m.), light emission at 568 nm was measured following excitation with a 680 nm laser using a Mithras LB 940 (Berthold Technologies). […]
substance,measurement,value
"D: 20-mer peptide of the AKAP79 N-terminus walk, positions 36-55 (CFKRRKKAAKALKPKAGSEA; UniProt P24588 36-55, looked up, fragment)",alphascreen signal compared to untreated samples (emission ratio with/without peptide),did not
